The target in one data set is T1, FZD5.
T1 chain: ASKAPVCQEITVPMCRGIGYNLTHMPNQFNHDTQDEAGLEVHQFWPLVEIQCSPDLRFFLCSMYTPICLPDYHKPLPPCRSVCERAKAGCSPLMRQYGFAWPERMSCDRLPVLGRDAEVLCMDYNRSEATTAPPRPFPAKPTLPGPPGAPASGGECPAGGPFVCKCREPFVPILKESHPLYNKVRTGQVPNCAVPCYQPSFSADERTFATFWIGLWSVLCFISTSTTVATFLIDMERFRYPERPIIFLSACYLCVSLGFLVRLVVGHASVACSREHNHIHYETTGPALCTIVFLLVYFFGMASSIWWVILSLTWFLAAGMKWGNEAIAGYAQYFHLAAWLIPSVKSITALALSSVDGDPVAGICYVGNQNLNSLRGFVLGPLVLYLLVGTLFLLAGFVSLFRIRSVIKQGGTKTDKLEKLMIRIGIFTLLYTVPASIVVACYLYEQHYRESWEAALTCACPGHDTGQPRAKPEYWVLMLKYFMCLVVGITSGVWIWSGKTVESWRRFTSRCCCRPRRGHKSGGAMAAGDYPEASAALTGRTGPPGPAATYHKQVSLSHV

For another data set, the target named is T2, LRP6 (human, UniProt O75581 20-1613).
T2 construct: whole, on cells; The legend says 'endogenous FZD5 but not LRP6'
The data set is described as follows: co-IP, immunoblot (FIG. 3F). (In general: A western blot detects proteins with antibodies after separation by electrophoresis.)

Another data set deals with T3, USP8N (UniProt P40818 1-714, limits assumed).
T3 construct: domain: USP8 N terminus; also called USP8 N terminus; N-terminal half of USP8
T3 sequence (looked up): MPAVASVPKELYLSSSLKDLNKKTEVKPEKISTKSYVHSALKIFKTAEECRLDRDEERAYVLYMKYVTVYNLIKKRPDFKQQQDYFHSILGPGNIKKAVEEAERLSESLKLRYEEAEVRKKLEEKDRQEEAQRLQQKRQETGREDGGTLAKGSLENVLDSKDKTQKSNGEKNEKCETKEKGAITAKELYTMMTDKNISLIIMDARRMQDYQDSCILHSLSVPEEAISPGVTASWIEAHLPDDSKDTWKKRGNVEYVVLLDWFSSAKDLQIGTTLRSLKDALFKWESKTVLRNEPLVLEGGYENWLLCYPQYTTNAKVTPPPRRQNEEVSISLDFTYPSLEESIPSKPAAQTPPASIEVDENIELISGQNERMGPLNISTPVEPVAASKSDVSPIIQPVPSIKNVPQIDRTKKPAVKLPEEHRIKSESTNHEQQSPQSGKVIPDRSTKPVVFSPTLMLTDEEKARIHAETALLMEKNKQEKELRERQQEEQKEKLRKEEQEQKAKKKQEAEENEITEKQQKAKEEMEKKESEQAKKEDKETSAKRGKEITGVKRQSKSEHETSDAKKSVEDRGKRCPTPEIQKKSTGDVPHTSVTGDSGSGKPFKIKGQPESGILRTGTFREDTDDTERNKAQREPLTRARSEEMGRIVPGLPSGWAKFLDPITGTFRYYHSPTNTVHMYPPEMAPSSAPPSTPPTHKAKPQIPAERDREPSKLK
The data set is described as follows: co-IP, immunoblot (FIG. 5C).

T2 sequence (O75581 20-1613): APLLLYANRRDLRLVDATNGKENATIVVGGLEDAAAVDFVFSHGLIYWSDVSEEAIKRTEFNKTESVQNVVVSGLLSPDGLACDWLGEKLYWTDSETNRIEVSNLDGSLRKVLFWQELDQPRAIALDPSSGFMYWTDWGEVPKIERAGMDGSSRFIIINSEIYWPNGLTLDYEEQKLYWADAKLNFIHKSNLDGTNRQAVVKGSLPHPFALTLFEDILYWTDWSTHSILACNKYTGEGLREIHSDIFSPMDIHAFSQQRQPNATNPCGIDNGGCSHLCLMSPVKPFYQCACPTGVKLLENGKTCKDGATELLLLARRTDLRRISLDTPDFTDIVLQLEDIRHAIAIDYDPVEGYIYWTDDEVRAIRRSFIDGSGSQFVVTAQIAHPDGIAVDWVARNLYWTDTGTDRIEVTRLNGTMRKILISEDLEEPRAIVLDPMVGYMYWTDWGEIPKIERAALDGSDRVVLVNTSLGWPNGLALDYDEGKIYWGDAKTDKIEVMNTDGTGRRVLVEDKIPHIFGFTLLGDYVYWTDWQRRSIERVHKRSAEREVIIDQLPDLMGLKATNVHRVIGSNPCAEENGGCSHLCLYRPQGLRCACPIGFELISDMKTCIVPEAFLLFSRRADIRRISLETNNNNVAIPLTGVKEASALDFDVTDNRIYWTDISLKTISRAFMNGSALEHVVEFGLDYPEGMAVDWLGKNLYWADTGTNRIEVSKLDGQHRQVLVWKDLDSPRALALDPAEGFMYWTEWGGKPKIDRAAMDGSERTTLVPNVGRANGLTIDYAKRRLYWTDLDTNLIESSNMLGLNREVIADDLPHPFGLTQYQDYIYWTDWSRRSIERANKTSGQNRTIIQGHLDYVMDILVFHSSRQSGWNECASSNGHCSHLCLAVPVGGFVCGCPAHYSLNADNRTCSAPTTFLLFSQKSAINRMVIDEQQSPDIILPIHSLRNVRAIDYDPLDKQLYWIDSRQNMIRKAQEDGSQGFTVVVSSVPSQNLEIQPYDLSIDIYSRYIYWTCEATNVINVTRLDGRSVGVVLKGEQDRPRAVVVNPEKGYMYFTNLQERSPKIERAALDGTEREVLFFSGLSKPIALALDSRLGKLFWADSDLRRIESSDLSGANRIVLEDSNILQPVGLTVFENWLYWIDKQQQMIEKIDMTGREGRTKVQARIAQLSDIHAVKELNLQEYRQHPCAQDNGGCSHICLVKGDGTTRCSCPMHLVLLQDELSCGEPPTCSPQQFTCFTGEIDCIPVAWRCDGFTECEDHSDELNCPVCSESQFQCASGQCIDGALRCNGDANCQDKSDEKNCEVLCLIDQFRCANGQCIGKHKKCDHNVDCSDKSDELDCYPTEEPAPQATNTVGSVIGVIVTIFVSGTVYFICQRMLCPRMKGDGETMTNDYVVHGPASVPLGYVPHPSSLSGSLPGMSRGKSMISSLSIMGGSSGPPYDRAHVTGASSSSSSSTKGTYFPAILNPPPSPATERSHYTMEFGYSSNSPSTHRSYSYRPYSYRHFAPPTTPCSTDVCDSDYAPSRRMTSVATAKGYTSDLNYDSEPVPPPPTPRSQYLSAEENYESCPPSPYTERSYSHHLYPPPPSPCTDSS

B1: USP8C (protein)
chain: RSYSSPDITQAIQEEEKRKPTVTPTVNRENKPTCYPKAEISRLSASQIRNLNPVFGGSGPALTGLRNLGNTCYMNSILQCLCNAPHLADYFNRNCYQDDINRSNLLGHKGEVAEEFGIIMKALWTGQYRYISPKDFKITIGKINDQFAGYSQQDSQELLLFLMDGLHEDLNKADNRKRYKEENNDHLDDFKAAEHAWQKHKQLNESIIVALFQGQFKSTVQCLTCHKKSRTFEAFMYLSLPLASTSKCTLQDCLRLFSKEEKLTDNNRFYCSHCRARRDSLKKIEIWKLPPVLLVHLKRFSYDGRWKQKLQTSVDFPLENLDLSQYVIGPKNNLKKYNLFSVSNHYGGLDGGHYTAYCKNAARQRWFKFDDHEVSDISVSSVKSSAAYILFYTSLGPRVTDVAT
For the molecule B1, the “deubiquitination (ubiquitylation assay)” value in the data set with FZD5 was “USP8C promoted deubiquitination of both FZD5 and SMO”; with SMO, “USP8C promoted deubiquitination of both FZD5 and SMO”.

B2: TMEM79-Flag (other)
chain: MTEPETLALLDMKEPETPEKSPPQALVLQSEEEGGTESPGTESLRVGSSVGSPIVREGPEDGPDSTISEAATLPWGTDPHPSAPLPDPPGWRDIEPEPLESEAPTKSEEPFKEDANLLPEKTVRAFVPIDLQCIERKPQEERILHRDAGPGELRNFLPARLSHPEPPERKWAEAVVRPPGRSCGGCGSCGGREALRAVASVVAALIFFPCLLYGAYAFLPFDAPRLPTMSSRLVYTLRCGVFATFPIVLGLLVYGLSLLCFSALRPFGEPRREVEIHRQYVAQSVQLFILYFFNLAVLSTYLPQDTLKLLPLLTGLFAISRLIYWLTFAVGRSFRGFGYGLTFLPLLAMLVWNLYYMFVVEPERMLTASESRLDYPDHARSVSDYRPRSWG
notes: Expressed in HEK293T cells; co-IP from lysates; not shown: Flag tag at the C-terminus
On to B2, for which the binding result with LRP6 was “no binding”.

B3: TMEM79 (other)
chain: MTEPETLALLDMKEPETPEKSPPQALVLQSEEEGGTESPGTESLRVGSSVGSPIVREGPEDGPDSTISEAATLPWGTDPHPSAPLPDPPGWRDIEPEPLESEAPTKSEEPFKEDANLLPEKTVRAFVPIDLQCIERKPQEERILHRDAGPGELRNFLPARLSHPEPPERKWAEAVVRPPGRSCGGCGSCGGREALRAVASVVAALIFFPCLLYGAYAFLPFDAPRLPTMSSRLVYTLRCGVFATFPIVLGLLVYGLSLLCFSALRPFGEPRREVEIHRQYVAQSVQLFILYFFNLAVLSTYLPQDTLKLLPLLTGLFAISRLIYWLTFAVGRSFRGFGYGLTFLPLLAMLVWNLYYMFVVEPERMLTASESRLDYPDHARSVSDYRPRSWG
notes: It was expressed in HEK293T cells and tested by co-IP from lysates; also called Mattrin; full length TMEM79; not shown: Myc or Flag tag or both at the C-terminus
Consider B3, for which the binding result with USP8N is “no binding”.
